Series [1] addresses ExsF with the first 23 residues replaced by an N-terminal 6xHis tag (B. paranthracis). Briefly: crystal structure.
The series “crystal structure” deals with the molecule itself. The series can be described thus: crystal structure.

Usually stoichiometry N stands for a count of units in the complex or per binding partner.

“ExsF with the first 23 residues replaced by an N-terminal 6xHis tag (domain or fragment)”: the stoichiometry N in series [1] came out at 3.

B1: C-terminal domain of F-BclA (F-BclA-CTD; BTK_RS34675 residues 721-863) (domain or fragment)
chain: MHHHHHHSVGLTNYLYVFDTTNQSIAVGSSVTFNTNGPITGTALSHITGTGNIIINTLGTYVAEFQLQASRENQFSLELNGTPIPGGRFGTGSPHSINQGTAAFTVTVVPSTLTLINNTSSAGTITLSNSDGGSLTNVSASISIFQVG
Turning to B1, the “stoichiometry N” value in the series “crystal structure” turned out to be 3.

The values above are taken from publication PMC12357932 (Nature Communications, 2025).
